Entries after “also recorded” stand apart in the source; their conditions may differ. Each block holds one molecule with its values, some of them ahead of it.
Legend:
GRP = target: T1, GRP (Mus musculus, UniProt O08967); assay: Effect of phosphoinositides on GRP-catalyzed ARF1 guanine nucleotide exchange; type: biochemical; conditions: 25 μM lipid, 0.15 μM GRP
T1 construct: GST (N, cleaved yes); made in house; host or cells: GRP from pGEX-4T; ARF1 from baculovirus-infected Sf-9 cells
T1 sequence (O08967 1-399): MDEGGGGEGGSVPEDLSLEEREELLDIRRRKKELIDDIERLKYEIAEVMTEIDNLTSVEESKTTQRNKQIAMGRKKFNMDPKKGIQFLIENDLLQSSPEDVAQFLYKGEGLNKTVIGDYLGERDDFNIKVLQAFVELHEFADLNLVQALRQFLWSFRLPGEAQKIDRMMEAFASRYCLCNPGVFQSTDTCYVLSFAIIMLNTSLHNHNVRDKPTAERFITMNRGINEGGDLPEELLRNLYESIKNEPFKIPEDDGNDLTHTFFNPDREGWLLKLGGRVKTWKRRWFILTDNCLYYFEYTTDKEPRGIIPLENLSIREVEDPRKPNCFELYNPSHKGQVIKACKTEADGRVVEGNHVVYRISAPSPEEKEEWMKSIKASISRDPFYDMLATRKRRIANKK

ARNO = conditions: vesicles with high concentrations of negatively charged phospholipids; cited from earlier work
PH domain of PLCγ1 = conditions: cited from earlier work
PH domain of GRP = target: T2, PH domain of GRP (Mus musculus, UniProt O08967); assay: Competition for [3H]dioctanoyl PtdIns(3,4,5)P3 binding to the PH domain of GRP; design: GST fused to the PH region of GRP (amino acids 239-399); made in house; host or cells: bacteria; conditions: FIG. 9B
T2 sequence (O08967 239-399): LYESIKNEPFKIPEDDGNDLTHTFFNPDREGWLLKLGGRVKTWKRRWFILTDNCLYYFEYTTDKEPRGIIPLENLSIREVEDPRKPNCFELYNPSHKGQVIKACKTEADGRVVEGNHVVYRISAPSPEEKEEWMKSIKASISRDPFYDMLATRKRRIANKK
Method: Binding assays were performed as described in (Rameh, L. E. et al., J. Biol. Chem., In Press). Briefly, GST fused to the PH region of GRP (amino acids 239-399) was bound to glutathione immobilized on agarose beads (Sigma). Synthetic [^3 H]-labeled diotanoyl PtdIns(3,4,5)P3 was added, and after one hour the beads were separated from the supernatant by centrifugation. The amount of [^3 H]-PtdIns(3,4,5)P3 bound to the PH domain was calculated by subtracting the amount of free [^3 H] present in supernatants from GST-GRP from the amount of free [^3 H] in supernatants from control GST. The data was fitted to the equation [bound]=Bmax×[free]/(KD + [free]) by least squares curve fit. For the competition assays the beads containing the GST-fusion proteins were incubated with 2.5 μM[^3 H]-labeled dioctanoyl PtdIns(3,4,5)P3 bound was calculated based on the amount of [^3 H] bound to the beads in the absence of competitor. The total [^3 H] bound to the GST control was less then 0.5% of the total [^3 H] bound to GRP PH domain. The data was fitted to the equation % bound=100-n×L/Klapp +L) where n is the % specific binding, L is the concentration of unlabeled lipid added and Klapp is the apparent competitive dissociation constant. The rations of the apparent dissociation constants accurately reflect the ratios of the true dissociation constants under the present experimental conditions (Rameh, L. E. et al., J. Biol. Chem., In Press).
The data depicted in FIG. 8 indicate that receptor signaling through PI3-kinases, which generates PtdIns(3,4,5)P3, may specifically regulate ARF proteins through GRP. In order to further test this, the relative binding affinities of PtdIns(3,4,5)P3 versus PtdIns (4,5)P2, which is constitutively present in cell membranes, for the PH domain of GRP were determined. A GST fusion protein of the PH domain of GRP was incubated with various concentrations of synthetic [^3 H]dioctanoyl PtdIns(3,4,5)P3 and binding was determined (FIG. 9A). These experiments show high affinity binding of this polyphosphoinositide,with a calculated Kd=0.5 μM.

ARF5 [1] = conditions: cited from earlier work
[2] = tested on: integrin β2 cytoplasmic domain; conditions: through Sec7 homology region; cited from earlier work
[3] = Binding of [32P]PI(3,4,5)P3 by GST fusion proteins spotted on nitrocellulose; conditions: 150 pmol protein on nitrocellulose; relative to GST
Method: The 3'-phosphatidylinositol probes labeled at the 3' position were generated using GST-p110 PI3-kinase purified from recombinant bacculovirus infected Sf 9 cells, using either purified phosphatidylinositol phosphates or crude brain lipid. Briefly, 20 mg phospholipid in chloroform was dried under N2 and resuspended in […] of buffer containing Tris-HCl pH 7.4, EDTA 1 mM and incubated in […] phopsphorylation media containing 20 mM Tris-HCl pH 7.4, 100 mM NaCl, 10 mM MgCl2, 0.5 mM EGTA. 0.2 mM adenosine, GST-p110 and 5-10 mCi [g-^32 P]ATP (5 Ci/umol). The reaction was carried out for 2 h at room temperature, quenched by addition of 0.2 ml of 1M HCl, followed by 0.5 ml of chloroform:methanol (1:1). The organic phase containing phospholipids was washed 4 times with 0.4 ml of methanol:HCl (1: 1) and stored at -70° C. until use. Just before use, the lipid was dried under a stream of nitrogen with phosphatidyl serine corresponding to a final concentration of 20 mg/ml. The identities of the PI3-P, PI3,4-P2 and PI3,4,5-P3 were confirmed by TLC and HPLC analysis.
To generate the GST fusion proteins, PCR reactions using the primers: […] (SEQ ID NO:9) and […] (SEQ ID NO:10) for the GST-N construct, […] (SEQ ID NO:11) and […] (SEQ ID NO:12) for the GST-Sec7 construct, […] (SEQ ID NO:13) and […] (SEQ ID NO:14) for the GSTPH construct, and […] (SEQ ID NO:15) and […] (SEQ ID NO:16) for the GSTGRP constructs. The sequences of the PCR products were verified, and cloned into pGEX-5X-3 in the EcoRI and Xba 1 sites. The bacteria were lysed and the fusion proteins were bound to gluthathione agarose according to standard procedures. Elution was effected by incubation of the beads with one volume 20 mM Hepes, 100 mM NaCl, 1 mM dithiotreitol (H buffer) supplemented with 10 mM gluthatione and 1% sodium cholate, and the eluate was dialyzed extensively against H buffer. For binding assays, protein was bound to nitrocellulose using a BIO-RAD BIO-DOT™ apparatus, using 150 pmol per well for binding assays and 7.5 pmol for competition assays. The nitrocellulose was washed in assay buffer, and 3 mm circles of the filters containing the protein were cut out and incubated in […] assay buffer with the relevant lipids and competitors for 2 h under constant agitation. The filters were washed four times with 1 mL assay buffer and counted in a scintillation counter.
In order to determine whether PI(3,4,5)P3 binding could be localized to specific sequences within the GRP structure, GST fusion proteins containing either residues 239 to 399 (PH domain), residues 52 to 260 (Sec7 domain), or residues 5 to 71, full length GRP residues 5-399 were expressed in bacteria and purified on glutathione-conjugated beads. […] 150 pmol of the proteins were spotted on nitrocellulose filters, incubated with [^32 P]PI(3,4,5)P3 and the amount of bound lipid was determined as described. The values are the means of the quadruplicate determinations, and the error bars are the standard deviations. […] Nitrocellulose filters with GST-PH were incubated with 25,000 cpm of each of the phospholipids and the amount of bound lipid determined as described above. The values are the means of quadruplicate determinations and the error bars are the standard deviations. […] Although previous work has shown that PH domain from PLCδ (Lemmon et al. (1995) supra) and various other proteins bind 4,5-polyphosphoinositide, none have been reported to preferentially associate with a 3-polyphosphoinositide. […]

ARF1 = ARF1 guanine nucleotide exchange ([35S]GTPγS binding); type: biochemical
ARF5 [4] = assay: ARF5 guanine nucleotide exchange ([35S]GTPγS binding); type: biochemical
ARF6 = ARF6 guanine nucleotide exchange ([35S]GTPγS binding); type: biochemical
[5] = 40 minutes, phosphatidylcholine and cholate

stimulation of ARF1 exchange activity in the presence of GRP (GRP; 0.05% cholate and 0.05% CHAPS (low negative charge)): little or no effect | stimulation of ARF1 exchange activity in the presence of GRP (GRP; 0.1% cholate (high negative charge)): stimulated | affinity, fold lower than PtdIns(3,4,5)P3 (PH domain of GRP): 50 fold
Molecule: PtdIns(4,5)P2
recruitment of ARNO and stimulation of guanine nucleotide exchange on ARF1 (ARNO): causing stimulation of guanine nucleotide exchange on ARF1; also recorded: sufficient for its recruitment to membranes as well as activation of ARF exchange | interaction with isolated PH domain of PLCγ1 (PH domain of PLCγ1): high affinity

B1: cytohesin-1: B2-1 encoded protein (denoted cytohesin 1) (protein)
chain: MEEDDSYVPSDLTAEERQELENIRRRKQELLADIQRLKDEIAEVANEIENLGSTEERKNMQRNKQVAMGRKKFNMDPKKGIQFLIENDLLKNTCEDIAQFLYKGEGLNKTAIGDYLGERDEFNIQVLHAFVELHEFTDLNLVQALRQFLWSFRLPGEAQKIDRMMEAFAQRYCQCNNGVFQSTDTCYVLSFAIIMLNTSLHNPNVKDKPTVERFIAMNRGINDGGDLPEELLRNLYESIKNEPFKIPEDDGNDLTHTFFNPDREGWLLKLGGGRVKTWKRRWFILTDNCLYYFEYTTDKEPRGIIPLENLSIREVEDSKKPNCFELYIPDNKDQVIKACKTEADGRWEGNHTVYRISAPTPEEKEEWIKCIKAAISRDPFYEMLAARKKKVSSTKRH
ARF5 as substrate for cytohesin-1 (ARF5 [1]): not to be a substrate | binding of the integrin β2 cytoplasmic domain [2]: high affinity

binding of [^32 P]PI(3,4,5)P3 by GST fusion protein [3]: extensive binding | concentration that maximally activates labeled nucleotide binding to ARF1 (ARF1; [5]): 2.5 µM | concentration that maximally activates labeled nucleotide binding to ARF5 (ARF5 [4]; [5]): 2.5 µM | ARF6 guanine nucleotide exchange (ARF6): no effect and not
B2: GRP: general receptor for phosphoinositides, mouse protein with SEC7 and PH domains (protein)
chain: MDEGGGGEGGSVPEDLSLEEREELLDIRRRKKELIDDIERLKYEIAEVMTEIDNLTSVEESKTTQRNKQIAMGRKKFNMDPKKGIQFLIENDLLQSSPEDVAQFLYKGEGLNKTVIGDYLGERDDFNIKVLQAFVELHEFADLNLVQALRQFLWSFRLPGEAQKIDRMMEAFASRYCLCNPGVFQSTDTCYVLSFAIIMLNTSLHNHNVRDKPTAERFITMNRGINEGGDLPEELLRNLYESIKNEPFKIPEDDGNDLTHTFFNPDREGWLLKLGGRVKTWKRRWFILTDNCLYYFEYTTDKEPRGIIPLENLSIREVEDPRKPNCFELYNPSHKGQVIKACKTEADGRVVEGNHVVYRISAPSPEEKEEWMKSIKASISRDPFYDMLATRKRRIANKK
ARF1 guanine nucleotide exchange (ARF1; [^35 S]GTPγS binding to immunoprecipitated ARF1): catalyze nucleotide exchange; also recorded: selectively catalyzes | ARF5 guanine nucleotide exchange (ARF5 [4]; [^35 S]GTPγS binding): significantly enhanced; also recorded: catalyze nucleotide exchange; also recorded: selectively catalyzes

— US6194173A, “Binding proteins for phosphoinositides, GRP1 or general receptor 1 for phophoinositide” (priority 1999, dated 2001)
